This note sets out measurements from patent US20230390363A1, “Compounds, Compositions and Methods of Use to Treat Spinal Fusions” (PURDUE RESEARCH FOUNDATION, priority 2020, published 2023).

Non-standard residues stand in square brackets, D forms with d. Aib = CC(C)(N)C(=O)O

This assay has as its system posterolateral spinal fusion of L4-L5. Description: Posterolateral spinal fusion of L4-L5 in rats: micro-CT and manual palpitation after treatment. In kind it is in vivo, rat. The conditions noted are these: for spinal fusion (micro-CT, manual palpitation): plain collagen matrix, rhBMP-2 10 μg soaked in matrix. The protocol: FIG. 6, panels A-C show three-dimensional reconstructions of micro-CT scans of a posterolateral spinal fusion of L4-L5 in a rat treated with a plain collagen matrix and a compound of SEQ ID NO: 2 for eight weeks. In some embodiments, SEQ ID NO: 2 was dosed (e.g., in rodents) at 33 nmol/kg twice a week. […] In some embodiments, the collagen matrix was applied during surgery. […] In some embodiments, phosphate-buffered saline was dosed at a 1× concentration twice a week in the same volume as SEQ ID NO: 2. […] Scores were assigned 0-5 on osteointegration, density, and bridging of both bilateral spinal fusions in microCT scans of the rats as determined by an individual who was blinded to the treatment and reviewed random samples. The total score is the sum of all five scores combined. […] The density of the scan was assigned based on a standard curve generated by a phantom hydroxyapatite standard set. A bilateral posterolateral lumbar spinal fusion was performed under aseptic conditions using isoflurane as an anesthetic. The skin surrounding the L2-L6 region on the back was shaved and disinfected using a Betadine solution followed by an alcohol pad. A 3-cm incision extending from the L3 to L6 vertebrae was made in the skin in this prepared area. The muscle on the vertebral body between the spinous process and the transverses process was bluntly dissected away from the vertebral body to expose the transverses processes. Using a low-speed burr, the L4 and L5 transverse processes cortical bone was removed in addition to the facia joint between the two vertebrae. The burr removed the surface layer of the bone. This process is known as decortication and was done to allow for direct regeneration of bone tissue. Following decortication, a drug-soaked collagen sponge was placed on each side of the vertebrae. A 5×7.5-mm collagen sponge was soaked to saturation in the drugs for 10 minutes. The collagen sponge (RCM6 membranes from ACE surgical supplies) served as a scaffold to aid in the fusion of the vertebrae. Mineralized collagen scaffolds (supplied by Houston Methodist, Houston, TX) and collagen scaffolds wrapped around anorganic bone granules (InterOss bone granules; SigmaGraft Inc. Biomaterials, Fullerton, CA) were also separately used. The inter-muscle was closed with resorbable sutures. The exterior wound was then sutured closed using a nylon suture. Subcutaneous buprenorphine (0.05-0.1 mg/kg) was then administered directly after the operation and was repeated every 12 hours for the next 3 days post-surgery. Fracture healing was assessed using micro-CT (Scanco Medical Ag or PerkinElmer). The anesthetized animal was scanned for two minutes with the PerkinElmer Quantum FX micro-CT at high resolution with a voxel size of 10 μM at 90 kV and 88 uA and an Al 0.5 mm+Cu 0.06 mm filter. The scanning detector rate was 117 fps. The images were analyzed in ImageJ using the BoneJ package. Morphometric parameters were quantified in an ROI that included just the fracture callus. Trabecular thickness (Tb.Th.), trabecular spacing (Tb. Sp.), total volume (TV), and volume of calcified callus (BV) were calculated. Statistical analysis was performed using a one-way analysis of variance (ANOVA) and a Dunnett's post-hoc analysis with significance reported at the P value of 0.05. All animal experiments were performed in accordance with protocols approved by Purdue University's Institutional Animal Care and Use Committee (IACUC). Rats were scanned in AMI after being anesthetized with isoflurane.

B1: H-AVSEHQLLHDKGKSIQDLRRRELLEKLLxKLHTAEIRATSEVSPNSeeeeeeeeeeeeeeeeeeee (peptide)
chain: H-AVSEHQLLHDKGKSIQDLRRRELLEKLL[Aib]KLHTAEIRATSEVSPNS[dE][dE][dE][dE][dE][dE][dE][dE][dE][dE][dE][dE][dE][dE][dE][dE][dE][dE][dE][dE]
notes: PTHrP fragment conjugated at its C-terminus to a linear peptide of 20 D-glutamic acid residues; x=Aib, e=D-glutamic acid
For the molecule B1, the “change of bone graft granules on micro-CT” value (bone graft matrix, eight weeks) is recorded as “the granules resorb”. The “spinal fusion (manual palpitation)” value (bone graft matrix, eight weeks, SEQ ID NO: 2 33 nmol/kg twice a week, rhBMP-2 10 μg) is recorded as “no fusion”. In addition, the “spinal fusion (micro-CT)” value (mineralized collagen scaffold, eight weeks of treatment) is “none of the treatments had fused”. For the same molecule, under “mineralized collagen scaffold, five weeks of treatment, preliminary results”, the “mineralization of the scaffolds (micro-CT)” value is listed as “increased the mineralization of the scaffolds more than BMP2 or saline”. Moreover, the “spinal fusion (micro-CT, manual palpitation)” value is listed as “Fusion was confirmed” (eight weeks, SEQ ID NO: 2 33 nmol/kg twice a week) and “fused” (eight weeks, SEQ ID NO: 2 33 nmol/kg twice a week, listed as SEQ ID NO.: 2).
